Molecular target: recombinant human protective protein/cathepsin A (rhPPCA), 54-kDa precursor form (human)
Test: SEC

stoichiometry N: 2
Substance: recombinant human protective protein/cathepsin A (rhPPCA), 54-kDa precursor form (enzyme)

Source: article PMC7782203
